Literature values, collected in article PMC3485249.
pKd: −log10 of the molar value.

Target: Pygopus PHD PHD (Homo sapiens) (UniProt Q9Y3Y4)

For Pygopus PHD PHD (from UniProt Q9Y3Y4), the pKd is given as 6.00.
